Results reported in patent publication US20210187071A1, “COMPOSITIONS COMPRISING MDA-7/IL-24 PROTEIN AND METHODS OF USE” (VIRGINIA COMMONWEALTH UNIVERSITY, priority 2017, published 2021).
“Also recorded” adds a separate entry of the source. Read-outs that look alike come from different tables or passages of the source.

Experiments:
RAW 264.7 = assay: MTT proliferation assay in RAW 264.7 cells; assay type: cell-based, mouse; settings: His-MDA-7 10 μg/ml, 5 days
Description: (§1) MTT Cell Proliferation and Clonal Assays: Cell proliferation assays were done as described previously (25). Briefly, 2,000 cells were seeded in each well of a 96-well plate and allowed to attach overnight. Cells were treated with complete media in the presence or absence of different concentrations of MDA-7/IL-24 protein. At appropriate time points, cells were further incubated with MTT (3-(4, 5-di methyl thiazol-2-yl)-2, 5 diphenyl tetrazolium bromide) reagents. Finally, DMSO was applied to dissolve the blue salt and the OD was measured at 560 nm (25). For determining long-term effects, colony formation (cloning) assays were performed as described earlier (26). […]
To investigate the effect of MDA-7/IL-24 on osteoclast differentiation, bone marrow cells from athymic nude mice were isolated and induced to differentiate with RANKL in the presence or absence of MDA-7/IL-24 protein. Five days after induction with RANKL, osteoclast differentiation was measured by counting multinucleated cells. Cells positively stained for TRAP and multinucleated cells were quantified under a light microscope (FIG. 9A). […] Using RAW 264.7 cells, different genetic markers associated with osteoclastic differentiation were monitored (33). […] RNA was isolated after 5 days of treatment and real time PCR quantified expression of TRAP, Cathepsin K (CTSK), and Calcitonin Receptor (CTR) genes. […]

[1] = tested on: Akt signaling (p-Akt, p-GSK3β, NFATc1, Mcl-1); assay: Western blotting of Akt signaling cascade in RAW 264.7 cells; assay type: cell-based, mouse
Description: Western Blotting: Standard protocols were followed for Western blotting assays (24, 27). The primary antibodies used were pAkt, Akt, pGSK3β, GSK3β, NFATc1, cyclin D1 (Cell Signaling Technology, Danvers, Mass., USA) and EF1α (Abeam, Cambridge, United Kingdom). Appropriate secondary antibodies were purchased from Sigma-Aldrich, Inc. St. Louis, Mo., USA).
MDA-7/IL-24 Regulates AKT Signaling in Mouse Macrophage cells: To determine whether MDA-7/IL-24 protein exerts any effect on Akt activation in our model system, RAW 264.7 cells were treated with MDA-7/IL-24 protein in the presence or absence of RANKL. It was observed that RANKL induces Akt activation in RAW 264.7 cells, and this activated Akt was suppressed by MDA-7/IL-24 protein (FIGS. 3A and 11A). […] The effect of Akt inhibition by a PI3K kinase inhibitor (LY294002) was also studied in the signaling cascade involving NFAT, Mcl-1, and Akt (FIGS. 3B and 11B).
A constitutively active form of Akt (MYR-Akt) was also tested. Cells were transfected with MYR-Akt and treated with MDA-7/IL-24.

PC3-ML cells [2] = settings: for bone metastasis (BLI signal / luciferase intensity): MDA-7/IL-24 protein 5 mg/kg tail vein, 6 doses over three weeks, vs untreated control; for survival: MDA-7/IL-24 protein 5 mg/kg, 6 doses; for toxicity in animals: delivered repeatedly systemically in mice
Description: In vivo Metastasis Studies: All animal studies were approved by the Institutional Animal Care and Use Committee (Virginia Commonwealth University). For experimental bone metastasis assays, 6-8-week-old male athymic nude mice (purchased from Harlan, USA) were injected with 1×10^5 PC3-ML cells stably expressing firefly luciferase gene through an intracardiac route. For determining the therapeutic activity of MDA-7/IL-24 protein, mice received an intravenous injection of recombinant protein (5 mg/kg), one day after implantation of cells. Animals were treated with therapeutics for a total of 6 times (2× a week for first 3 weeks). […] Image of the bone region was monitored by a BLI (bioluminescence imaging) method using an IVIS® imaging system (15, 19, 20).
In this model, stable luciferase expressing PC3-ML cells were injected in male athymic nude mice through an intracardiac route to produce bone metastases. The expansion, invasion, and migration of PC3-ML cells were monitored by IVIS® imaging (15, 20, 23). […] BLI imaging followed development of metastatic lesions in bone. […] To determine the effect of MDA-7/IL-24 on primary bone marrow in animals, cells from the bone cavity were isolated and treated with His-MDA-7 at different doses in vitro.

[3] = tested on: primary bone marrow cells; assay: Live-dead cell assay on primary bone marrow cells; assay type: cell-based, mouse; settings: treated in vitro at different doses
Description: Live-Dead Cell Assay: Live and dead cells were observed by confocal laser microscopy (Zeiss, Germany) after staining with live/dead staining reagent (Invitrogen, Carlsbad, Calif., USA) as per the manufacturer's instructions. The images were analyzed by Zeiss software.
BLI imaging followed development of metastatic lesions in bone.

PC3-ML cells [4] = assay: MTT cell proliferation assay in PC3-ML cells; assay type: cell-based; settings: PC3-ML cells treated with MDA-7/IL-24 protein
Description: Purification of Recombinant His-MDA-7 Protein: IM-PHFA cells were infected with Ad.5-His-mda-7 using a published protocol (24). Cell supernatant was mixed with Ni-NTA (a nickel-nitrilotriacetic) acid slurry to allow binding of MDA-7/IL-24 to the Ni-NTA beads. Twenty-four hours after incubation, the Ni-NTA beads were collected, washed, and the purified MDA-7/IL-24 protein was eluted in imidazole buffer. The protein was validated by western blotting using anti-MDA-7 antibody (Genhunter Corporation, Nashville, Tenn., USA). Biological activity was checked in PC3-ML cells by MTT assay (25).
as §1, with “(26). Briefly, 200 cells were plated and allowed to grow in the presence or absence of MDA-7/IL-24 for an additional 15 days.” for “(26).”

[5] = listed as recombinant MDA-7/IL-24

B1: MDA-7/IL-24 protein: Recombinant His-tagged MDA-7/IL-24 protein purified on Ni-NTA from supernatant of IM-PHFA cells infected with Ad.5-His-mda-7 (protein)
chain: QEFHFGPCQVKGVVPQKLWEAFWAVKDTMQAQDNITSARLLQQEVLQNVSDAESCYLVHTLLEFYLKTVFKNYHNRTVEVRTLKSFSTLANNFVLIVSQLQPSQENEMFSIRDSAHRRFLLFRRAFKQLDVEAALTKALGEVDILLTWMQKFYKL
Proliferation of RAW 264.7 (MTT) (RAW 264.7): not affected
RANKL-induced Akt activation ([1]; MDA-7/IL-24 protein 10 μg/mL, RANKL 100 ng/mL): suppressed
Phosphor-GSK3β, NFATc1, and Mcl-1 expression increased by constitutively active Akt ([1]; RAW 264.7 cells transfected with MYR-Akt): inhibited
Mcl-1 expression ([1]; RAW 264.7 cells, MDA-7/IL-24 treatment): profoundly inhibited Mcl-1 expression
bone metastasis (BLI signal / luciferase intensity) (PC3-ML cells [2]): significantly fewer metastatic lesions
bone metastasis (BLI signal / luciferase intensity) (PC3-ML cells [2]; listed as MDA-7/IL-24): significantly less evidence of metastasis; also recorded: a significant decrease in metastasis; also recorded: significant inhibition in luciferase intensity
bone metastasis (BLI signal / luciferase intensity) (PC3-ML cells [2]; [5]): significantly less metastatic lesions in their femurs; also recorded: significantly reduced the occurrence of bone metastasis
survival (PC3-ML cells [2]): enhancement of survival
survival (PC3-ML cells [2]; listed as MDA-7/IL-24): increased
toxicity in animals (PC3-ML cells [2]): non-toxic
toxicity in animals (PC3-ML cells [2]; [5]): without promoting toxicity
development of lung metastases (PC3-ML cells [2]; six doses of MDA-7/IL-24 protein 5 mg/kg): suppressed development of lung metastases
toxicity in primary bone marrow cells ([3]; listed as His-MDA-7): No apparent toxicity
toxicity in primary bone marrow cells ([3]; listed as MDA-7/IL-24): no effect
Cell proliferation (MTT assay) (PC3-ML cells [4]): significant inhibition in cell proliferation
Cell proliferation (MTT assay) (PC3-ML cells [4]; listed as MDA-7/IL-24): significantly impaired
